Consider seven molecules from patent publication EP4480961A1 (Consejo Superior De Investigaciones Científicas, dated 2024).

Assay [1] concerns the target T1, Y. ruckeri OmpF embedded in the outer membrane of E. coli MDS42 ΔompF cells (Yersinia ruckeri).
T1 construct: whole, on cells; Cells were fixed with PFA for flow cytometry; also called OmpF Y. ruckeri expressing strain; specific target
Kind of assay: flow cytometry titration in fresh water.

The target in assay [2] is T2, wild-type E. coli OmpF embedded in the membrane of E. coli MDS42 cells (Escherichia coli, UniProt P02931 23-362).
T2 construct: whole, on cells
T2 sequence: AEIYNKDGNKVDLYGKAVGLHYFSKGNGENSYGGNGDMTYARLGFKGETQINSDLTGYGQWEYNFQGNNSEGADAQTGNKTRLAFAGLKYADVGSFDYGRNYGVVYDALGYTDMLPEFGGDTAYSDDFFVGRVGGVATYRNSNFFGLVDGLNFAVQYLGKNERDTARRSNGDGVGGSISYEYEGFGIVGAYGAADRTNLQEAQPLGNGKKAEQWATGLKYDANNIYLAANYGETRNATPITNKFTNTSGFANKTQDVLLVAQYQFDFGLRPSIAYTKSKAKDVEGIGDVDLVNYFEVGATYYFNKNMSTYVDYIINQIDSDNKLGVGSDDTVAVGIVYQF
Kind of assay: flow cytometry titration in fresh water.

Assay [3] has as its target T1, Y. ruckeri OmpF embedded in the outer …. The assay is described as follows: flow cytometry titration in PBS, 5 concentrations 0.001-3 µM, normalised.
The target in assay [4] is T2, wild-type E. coli OmpF embedded in the …. Kind of assay: flow cytometry titration in PBS, 5 concentrations 0.001-3 µM, […].
Assay [5] deals with T1, Y. ruckeri OmpF embedded in the outer …. Kind of assay: flow cytometry on E. coli expressing Y. ruckeri OmpF, chimera at 0.1 µM and 1 µM, PBS.
Another assay deals with T3, ovalbumin (UniProt P01012 2-386).
T3 construct: also called ovoalbumin
T3 sequence (looked up): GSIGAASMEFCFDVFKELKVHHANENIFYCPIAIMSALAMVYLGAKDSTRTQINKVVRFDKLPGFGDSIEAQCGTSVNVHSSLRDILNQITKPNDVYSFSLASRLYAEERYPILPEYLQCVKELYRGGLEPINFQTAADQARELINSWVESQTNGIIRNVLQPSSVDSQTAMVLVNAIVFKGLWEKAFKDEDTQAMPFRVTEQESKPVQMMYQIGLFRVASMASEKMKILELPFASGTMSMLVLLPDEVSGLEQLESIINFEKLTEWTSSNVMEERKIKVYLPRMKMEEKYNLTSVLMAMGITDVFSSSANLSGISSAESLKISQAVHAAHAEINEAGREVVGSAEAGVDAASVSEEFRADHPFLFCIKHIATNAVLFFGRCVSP
The assay is described as follows: cross-reactivity test, yeast display flow cytometry.

The next assay has as its target T4, human seroalbumin (human, UniProt P02768 25-609).
T4 construct: also called hSA
The description is as above.

Assay [6] addresses T5, soluble recombinant OmpF (outer membrane porin F) from Yersinia ruckeri (Yersinia ruckeri).
T5 construct: also called rOmpF; Y. ruckeri OmpF
Kind of assay: BLI, biotinylated chimera on streptavidin tips, soluble rOmpF 0.5-2.3 µM, PBS pH 7.4.

T4 sequence (P02768 25-609): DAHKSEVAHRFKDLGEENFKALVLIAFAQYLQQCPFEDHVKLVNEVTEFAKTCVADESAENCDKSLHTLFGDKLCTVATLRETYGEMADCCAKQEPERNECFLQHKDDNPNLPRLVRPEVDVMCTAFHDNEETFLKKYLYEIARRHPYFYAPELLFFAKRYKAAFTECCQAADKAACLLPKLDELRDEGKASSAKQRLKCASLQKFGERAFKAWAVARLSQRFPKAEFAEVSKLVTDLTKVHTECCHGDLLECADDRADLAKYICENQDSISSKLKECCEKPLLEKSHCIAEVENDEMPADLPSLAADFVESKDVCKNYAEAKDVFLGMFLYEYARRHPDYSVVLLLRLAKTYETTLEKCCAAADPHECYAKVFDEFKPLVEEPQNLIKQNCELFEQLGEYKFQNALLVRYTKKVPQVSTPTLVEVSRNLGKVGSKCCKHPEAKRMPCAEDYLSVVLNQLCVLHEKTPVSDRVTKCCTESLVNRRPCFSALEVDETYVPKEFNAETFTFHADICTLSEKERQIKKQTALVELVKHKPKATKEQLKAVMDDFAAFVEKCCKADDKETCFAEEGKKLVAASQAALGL

B1: mHP1α-L1 chimeric protein (designed binder)
chain: MGKKTKRTADSSSSEDEEEYVVEKVLDRRMVKGQVEYLLKWKGFSEEHNTWEPEKNLDCPELISEFMKKYKKMKEGENNKPREKSEGNKRKSSFSNSADDIKSKKKREQSNDIARGFERGLEPEKIIGATDSCGDLMFLMKWKDTDEADLVLAKEANVKCPQIVIAFYEERLTWHAYPEDAENKEKESAKSGSATVKFTYQGEEKQVDISKIKMVIRMGQMILFTYDEGGGAMGRGIVSEKDAPKELLQMLEKQ
notes: also called mHP1-L1
On to B1, for which the Kd in assay [1] was 140 nM; in assay [2], 130 nM.

B2: mHP1α-R2 chimeric protein (designed binder)
chain: MGKKTKRTADSSSSEDEEEYVVEKVLDRRMVKGQVEYLLKWKGFSEEHNTWEPEKNLDCPELISEFMKKYKKMKEGENNKPREKSEGNKRKSSFSNSADDIKSKKKREQSNDIARGFERGLEPEKIIGATDSCGDLMFLMKWKDTDEADLVLAKEANVKCPQIVIAFYEERLTWHAYPEDAENKEKESAKSGSATVKFTYQGEEKQVDISKIKMVMRNGQRIRFMYDEGGGAIGLGEVSEKDAPKELLQMLEKQ
notes: also called mHP1-R2
On to B2, for which the Kd worked out at 75 nM in assay [3], 300 nM in assay [1], 280 nM in assay [2] and 82 nM in assay [4].

B3: mHP1α-L2 chimeric protein (designed binder)
chain: MGKKTKRTADSSSSEDEEEYVVEKVLDRRMVKGQVEYLLKWKGFSEEHNTWEPEKNLDCPELISEFMKKYKKMKEGENNKPREKSEGNKRKSSFSNSADDIKSKKKREQSNDIARGFERGLEPEKIIGATDSCGDLMFLMKWKDTDEADLVLAKEANVKCPQIVIAFYEERLTWHAYPEDAENKEKESAKSGSATVKFTYQGEEKQVDISKIKYVIRFGQKIMFKYDEGGGAHGSGMVSEKDAPKELLQMLEKQ
notes: Biotinylated for flow cytometry
Take B3: in assay [5], the “percentage of double positives” value is more than 75%.

B4: L2 engineered rcSso7d binder (designed binder)
chain: ATVKFTYQGEEKQVDISKIKYVIRFGQKIMFKYDEGGGAHGSGMVSEKDAPKELLQMLEKQ
notes: also called clone L2
Regarding B4, the binding result in the assay with ovalbumin and with human seroalbumin was “no binding (tested: 1 µM)” throughout.

B5: L1 engineered rcSso7d binder (designed binder)
chain: ATVKFTYQGEEKQVDISKIKMVIRMGQMILFTYDEGGGAMGRGIVSEKDAPKELLQMLEKQ
notes: also called clone L1
As to B5, the binding result with human seroalbumin is “no binding (tested: 1 µM)”.

B6: DBP1-L1 chimeric protein (designed binder)
chain: MADLPQKVSNLSINNKENGGGGGKSSYVPPHLRSRGKPSFERRSPKQKDKVTGGDFFRRAGRQTGNNGGFFGFSKERNGGTSANYNRRGSSNYKSSGNRWVNGKHIPGPKNAKLQKAELFGVHDDPDYHSSGIKFDNYDNIPVDASGKDVPEPILGGRTRGGGGFFNSRNNGSRDYRKHGGNGSFGSTRPRNTGTSNWGSIGGGFRNDNEKNGYGNSNASWWGSATVKFTYQGEEKQVDISKIKMVIRMGQMILFTYDEGGGAMGRGIVSEKDAPKELLQMLEKQ
notes: Biotinylated and immobilised on streptavidin tips for BLI; biotinylated for microscopy and flow cytometry
As to B6, the Kd in assay [6] came out at 119 nM. Moreover, the “percentage of double positives” value in assay [5] is more than 75%.

B7: DBP1-L2 chimeric protein (designed binder)
chain: MADLPQKVSNLSINNKENGGGGGKSSYVPPHLRSRGKPSFERRSPKQKDKVTGGDFFRRAGRQTGNNGGFFGFSKERNGGTSANYNRRGSSNYKSSGNRWVNGKHIPGPKNAKLQKAELFGVHDDPDYHSSGIKFDNYDNIPVDASGKDVPEPILGGRTRGGGGFFNSRNNGSRDYRKHGGNGSFGSTRPRNTGTSNWGSIGGGFRNDNEKNGYGNSNASWWGSATVKFTYQGEEKQVDISKIKYVIRFGQKIMFKYDEGGGAHGSGMVSEKDAPKELLQMLEKQ
notes: Biotinylated and immobilised on streptavidin tips for BLI
As to B7, in assay [6], the Kd was determined as 26 nM. Besides, the “percentage of double positives” value in assay [5] was more than 75%.
